Measured values from patent US20250369024A1, “Acyloin Condensation Reactions, Enzymes, and Products Thereof” (Mojia Biotech Pte. Ltd., priority 2023, published 2025).

What was measured:
AC440 = assay: Tolerance of 2HIB in AC440; type: cell-based, E. coli; conditions: M9-LB; cell density at 600 nm
Protocol: To check the tolerance of 2HIB, AC440 was grown in 5 mL of M9-LB supplemented with different concentration of 2HIB in 50 mL falcon tube, the cell density was monitored at 600 nm. The impact on growth could be observed at 25 g/L of 2HIB, while the AC440 is still able to grow and maintain its metabolic activity at the concentration of 2HIB at 75 g/L (FIG. 21), considering the cells will not suffer such high concentration of 2HIB at early stage, indicating AC440 is a good host for 2HIB production.

2-hydroxyisobutyryl-CoA = assay: In vitro purified enzyme isobutene glycol production from acetone and formate, ACR comparison; type: biochemical; conditions: 1 μM ACR and 1 μM FucO; 50 mM formate and 200 mM acetone
Protocol: The enzymes acyl-CoA transferase CaAbfT, HACS ApbHACS, acyl-CoA reductase ACR (LmACR, BmACDH, PtACDH, RpPduP, StEutE), and NADH-dependent alcohol dehydrogenase FucO were overexpressed and purified as described above. In vitro purified enzyme reactions for condensation of acetone and formyl-CoA was comprised of 100 mM KPi pH 7.4, 10 mM MgCl2, 0.15 mM TPP, 4 mM NADH, 2 mM acetyl-CoA, 1 μM ApbHACL, 2 μM CaAbfT, 50 mM formate and 200 mM acetone. The mixture was incubated at 30° C. for 3 min, and then 1 μM ACR and 1 μM FucO was added, and then the reactions were incubated at 30° C. for another 5 min unless otherwise specified. 2 μL of 10 M NaOH was added to 45 μL mixture for 30 min, followed by 3 μL 10 N H2SO4, and then applied for HPLC analysis as described above.

glyoxylate = assay: Growth-coupled selection of alanine dehydrogenases in glycine auxotroph strain; type: cell-based, E. coli; conditions: glycolate instead of glycine supplementation
formate = assay: Screening of formate activation enzymes with acetone and formate using growing cultures (2HIB); type: cell-based, E. coli; conditions: 100 mM acetone and 20 mM formate; growing cells
Text: Since formate activation is a required step for formate utilization, we further evaluated enzymes catalyzing this reaction. Acyl-CoA synthetase (ACS) enzymes are one of the three explored routes for formate activation, which can directly generate formyl-CoA from formate with the consumption of 2 ATP equivalents (ATP is converted to AMP). […] Therefore, ACS variants were further evaluated using the new established growing cell platform with ApbHACS overexpression. In this platform, formyl-CoA generated through formate activation enzymes is further condensed with non-toxic substrate acetone to produce 2-hydroxyisobutyrate (2HIB) (FIG. 23C).
The screening of a larger group of formate activation enzymes in actively growing cells was conducted using the M9-LB medium contains 6.78 g/L Na2HPO4, 3 g/L KH2PO4, 1 g/L NH4Cl, 0.5 g/L NaCl, 2 mM MgSO4, 100 μM CaCl2), 15 μM thiamine-HCl, 10 g/L tryptone, and 5 g/L yeast extract additionally supplemented with the micronutrient solution of Neidhardt^68. […] The cells were pelleted by centrifugation and the supernatant analyzed by HPLC as described below. The expected product 2-hydroxyisobutyric acid was detected in the media indicating the performance of corresponding formate activation enzymes. […]

Which results are given for `CC(C)(O)C(=O)O` [2HIB, 2-hydroxyisobutyric acid]?
2HIB concentration at which AC440 is still able to grow and maintain metabolic activity (AC440): 75 g/L; 2HIB concentration at which impact on growth could be observed (AC440): 25 g/L

B1: StEutE: acyl-CoA reductase, Salmonella typhymurium, Uniprot P41793 (protein, UniProt P41793 1-467, looked up)
Acetaldehyde dehydrogenase …: MNQQDIEQVVKAVLLKMKDSSQPASTVHEMGVFASLDDAVAAAKRAQQGLKSVAMRQLAIHAIREAGEKHARELAELAVSETGMGRVDDKFAKNVAQARGTPGVECLSPQVLTGDNGLTLIENAPWGVVASVTPSTNPAATVINNAISLIAAGNSVVFAPHPAAKKVSQRAITLLNQAVVAAGGPENLLVTVANPDIETAQRLFKYPGIGLLVVTGGEAVVDAARKHTNKRLIAAGAGNPPVVVDETADLPRAAQSIVKGASFDNNIICADEKVLIVVDSVADELMRLMEGQHAVKLTAAQAEQLQPVLLKNIDERGKGTVSRDWVGRDAGKIAAAIGLNVPDQTRLLFVETPANHPFAVTEMMMPVLPVVRVANVEEAIALAVQLEGGCHHTAAMHSRNIDNMNQMANAIDTSIFVKNGPCIAGLGLGGEGWTTMTITTPTGEGVTSARTFVRLRRCVLVDAFRIV
Which “performance in isobutene glycol production” value (2-hydroxyisobutyryl-CoA) does the source give for B1 here?
Its value is “best performance”.

B2: BsAld: alanine dehydrogenase from Bacillus subtilis, Uniprot Q08352 (protein, UniProt Q08352 1-378, looked up)
Alanine dehydrogenase: MIIGVPKEIKNNENRVALTPGGVSQLISNGHRVLVETGAGLGSGFENEAYESAGAEIIADPKQVWDAEMVMKVKEPLPEEYVYFRKGLVLFTYLHLAAEPELAQALKDKGVTAIAYETVSEGRTLPLLTPMSEVAGRMAAQIGAQFLEKPKGGKGILLAGVPGVSRGKVTIIGGGVVGTNAAKMAVGLGADVTIIDLNADRLRQLDDIFGHQIKTLISNPVNIADAVAEADLLICAVLIPGAKAPTLVTEEMVKQMKPGSVIVDVAIDQGGIVETVDHITTHDQPTYEKHGVVHYAVANMPGAVPRTSTIALTNVTVPYALQIANKGAVKALADNTALRAGLNTANGHVTYEAVARDLGYEYVPAEKALQDESSVAGA
With B2 as the molecule, how does the “growth of glycine auxotroph strain with glycolate” value (glyoxylate) read?
Its value is “started to grow”.

B3: OfFrc: acyl-CoA transferase (ACT), Oxalobacter formigenes, Uniprot O06644 (protein, UniProt O06644 2-428, looked up)
Formyl-CoA:oxalate …: TKPLDGINVLDFTHVQAGPACTQMMGFLGANVIKIERRGSGDMTRGWLQDKPNVDSLYFTMFNCNKRSIELDMKTPEGKELLEQMIKKADVMVENFGPGALDRMGFTWEYIQELNPRVILASVKGYAEGHANEHLKVYENVAQCSGGAAATTGFWDGPPTVSGAALGDSNSGMHLMIGILAALEMRHKTGRGQKVAVAMQDAVLNLVRIKLRDQQRLERTGILAEYPQAQPNFAFDRDGNPLSFDNITSVPRGGNAGGGGQPGWMLKCKGWETDADSYVYFTIAANMWPQICDMIDKPEWKDDPAYNTFEGRVDKLMDIFSFIETKFADKDKFEVTEWAAQYGIPCGPVMSMKELAHDPSLQKVGTVVEVVDEIRGNHLTVGAPFKFSGFQPEITRAPLLGEHTDEVLKELGLDDAKIKELHAKQVV
B3 was tested. Which “performance on formate activation (2HIB)” value (formate) did it give?
Its value is “better performance”.
